PMC9352680, “A comprehensive thermodynamic model for RNA binding by the Saccharomyces cerevisiae Pumilio protein PUF4”

Biological target: T1, PUF4 RNA-binding domain (Saccharomyces cerevisiae, UniProt P25339 537-888)
T1 sequence: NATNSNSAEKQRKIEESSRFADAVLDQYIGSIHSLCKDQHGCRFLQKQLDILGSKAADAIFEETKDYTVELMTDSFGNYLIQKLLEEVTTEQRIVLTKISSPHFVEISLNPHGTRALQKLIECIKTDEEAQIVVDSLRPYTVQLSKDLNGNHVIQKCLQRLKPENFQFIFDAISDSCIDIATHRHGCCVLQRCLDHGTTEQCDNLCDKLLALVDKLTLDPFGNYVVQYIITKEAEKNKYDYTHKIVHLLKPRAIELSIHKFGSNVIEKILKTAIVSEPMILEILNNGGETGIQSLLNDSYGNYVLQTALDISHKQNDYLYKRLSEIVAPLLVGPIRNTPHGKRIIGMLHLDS
Test: Mg; RNA-MaP; 20 mM Na-HEPES pH 7.4, 30 mM KOAc, 0.75 mM MgCl2, 0.1% Tween-20, 5% glycerol, 0.1 mg/mL BSA, 2 mM DTT; 25 C; 0.0125-409.6 nM protein
Conditions: tags: N-His6-TEV cleaved; C-SNAP kept, Cy3B-labelled; label: tethered on chip by stalled RNA polymerase

Q: With UCUCUUUGUGUUACUAUCUCUU (ssRNA) [Ib_S1_P5E.1_K5.1_C5.1_H5.1_[A4G]_A5.1_F5.1_[T8C]_T5.1] as the binder, how does the Kd read?
A: 51.5 nM

B1: Id_ii_S2_P3E.2_K3.1_C3.2_[C-2A]_H3.1_A3.1_F3.1_T3.2_[T9C]_[A10C] (ssRNA)
RNA: UUUGAUUAAUAUGAUAUCGUUCUUUCUAUUGUAUAUACCUUCUUUCUCGAUAUCAUAUUAAUCUUU
Q: With B1 as the binder, how does the Kd read?
A: 6.81 nM

B2: Id_ii_S2_P3E.2_K3.1_C3.2_[T-1G]_H3.1_A3.1_F3.1_T3.2_[T9A]_[A10T] (ssRNA)
RNA: UUUGAUUAAUAUGAUAUCGUUCUUUCUCGUGUAUAUAAUUUCUUUCUCGAUAUCAUAUUAAUCUUU
Q: For B2, which Kd is on record?
A: 1.85 nM

B3: Id_ii_S2_P3E.3_K3.2_C3.2_[C-2G]_[T-1G]_H3.2_A3.1_F3.1_T3.2_[A10T] (ssRNA)
RNA: UUUGAUUAAUAUGAUAUCGUUCUUUCUGGUAUAUAUAUUUUCUUUCUCGAUAUCAUAUUAAUCUUU
Q: Which Kd does the source give for B3 here?
A: 137 nM

B4: Id_ii_S2_P3E.3_K3.2_C3.2_[C-2G]_H3.2_A3.1_F3.1_T3.2_[T9C]_[A10G] (ssRNA)
RNA: UUUGAUUAAUAUGAUAUCGUUCUUUCUGUUAUAUAUACGUUCUUUCUCGAUAUCAUAUUAAUCUUU
Q: For B4, which Kd is on record?
A: 291 nM

B5: Id_ii_S2_P3E.2_K3.1_C3.2_[T-1C]_H3.1_A3.1_F3.1_T3.2_[A10T] (ssRNA)
RNA: UUUGAUUAAUAUGAUAUCGUUCUUUCUCCUGUAUAUAUUUUCUUUCUCGAUAUCAUAUUAAUCUUU
Q: With B5 as the binder, how does the Kd read?
A: 1.22 nM

B6: Id_ii_S2_P3E.2_K3.1_C3.2_[T-1G]_H3.1_A3.1_F3.1_T3.2_[T9G]_[A10G] (ssRNA)
RNA: UUUGAUUAAUAUGAUAUCGUUCUUUCUCGUGUAUAUAGGUUCUUUCUCGAUAUCAUAUUAAUCUUU
Q: For B6, which Kd is on record?
A: 10.2 nM

B7: Id_ii_S2_P3E.3_K3.2_C3.2_[C-2G]_[T-1C]_H3.2_A3.1_F3.1_T3.2_[T9A]_[A10C] (ssRNA)
RNA: UUUGAUUAAUAUGAUAUCGUUCUUUCUGCUAUAUAUAACUUCUUUCUCGAUAUCAUAUUAAUCUUU
Q: B7 was tested. Which Kd did it give?
A: 592 nM

B8: Id_ii_S2_P3E.2_K3.1_C3.2_H3.1_A3.1_F3.1_T3.2_[T9A] (ssRNA)
RNA: UUUGAUUAAUAUGAUAUCGUUCUUUCUCUUGUAUAUAAAUUCUUUCUCGAUAUCAUAUUAAUCUUU
Q: B8 was tested. Which Kd did it give?
A: 2.73 nM

B9: Id_ii_S2_P3E.2_K3.1_C3.2_[T-1G]_H3.1_A3.1_F3.1_T3.2_[A10T] (ssRNA)
RNA: UUUGAUUAAUAUGAUAUCGUUCUUUCUCGUGUAUAUAUUUUCUUUCUCGAUAUCAUAUUAAUCUUU
Q: Which Kd does the source give for B9 here?
A: 1.39 nM

B10: Id_ii_S2_P3E.3_K3.2_C3.2_[C-2G]_H3.2_A3.1_F3.1_T3.2_[T9A]_[A10T] (ssRNA)
RNA: UUUGAUUAAUAUGAUAUCGUUCUUUCUGUUAUAUAUAAUUUCUUUCUCGAUAUCAUAUUAAUCUUU
Q: How did the Kd turn out when B10 was run?
A: 36.2 nM

B11: Id_ii_S2_P3E.2_K3.1_C3.2_[C-2A]_H3.1_A3.1_F3.1_T3.2 (ssRNA)
RNA: UUUGAUUAAUAUGAUAUCGUUCUUUCUAUUGUAUAUAUAUUCUUUCUCGAUAUCAUAUUAAUCUUU
Q: B11 was tested. Which Kd did it give?
A: 5.13 nM

B12: Id_ii_S2_P3E.2_K3.1_C3.2_[T-1A]_H3.1_A3.1_F3.1_T3.2_[T9A]_[A10G] (ssRNA)
RNA: UUUGAUUAAUAUGAUAUCGUUCUUUCUCAUGUAUAUAAGUUCUUUCUCGAUAUCAUAUUAAUCUUU
Q: How did the Kd turn out when B12 was run?
A: 15.2 nM

B13: Id_ii_S2_P3E.2_K3.1_C3.2_H3.1_A3.1_F3.1_T3.2_[A10C] (ssRNA)
RNA: UUUGAUUAAUAUGAUAUCGUUCUUUCUCUUGUAUAUAUCUUCUUUCUCGAUAUCAUAUUAAUCUUU
Q: With B13 as the binder, how does the Kd read?
A: 1.61 nM

B14: Id_ii_S2_P3E.2_K3.1_C3.2_[C-2A]_H3.1_A3.1_F3.1_T3.2_[T9C]_[A10T] (ssRNA)
RNA: UUUGAUUAAUAUGAUAUCGUUCUUUCUAUUGUAUAUACUUUCUUUCUCGAUAUCAUAUUAAUCUUU
Q: B14 was tested. Which Kd did it give?
A: 8.7 nM

B15: Id_ii_S2_P3E.2_K3.1_C3.2_[T-1C]_H3.1_A3.1_F3.1_T3.2_[T9A]_[A10C] (ssRNA)
RNA: UUUGAUUAAUAUGAUAUCGUUCUUUCUCCUGUAUAUAACUUCUUUCUCGAUAUCAUAUUAAUCUUU
Q: How did the Kd turn out when B15 was run?
A: 2.58 nM

B16: Id_ii_S2_P3E.2_K3.1_C3.2_H3.1_A3.1_F3.1_T3.2_[T9A]_[A10T] (ssRNA)
RNA: UUUGAUUAAUAUGAUAUCGUUCUUUCUCUUGUAUAUAAUUUCUUUCUCGAUAUCAUAUUAAUCUUU
Q: For B16, which Kd is on record?
A: 1.9 nM

B17: Id_ii_S2_P3E.2_K3.1_C3.2_[T-1C]_H3.1_A3.1_F3.1_T3.2_[T9G]_[A10T] (ssRNA)
RNA: UUUGAUUAAUAUGAUAUCGUUCUUUCUCCUGUAUAUAGUUUCUUUCUCGAUAUCAUAUUAAUCUUU
Q: How did the Kd turn out when B17 was run?
A: 2.32 nM

B18: Id_ii_S2_P3E.2_K3.1_C3.2_[T-1A]_H3.1_A3.1_F3.1_T3.2_[A10C] (ssRNA)
RNA: UUUGAUUAAUAUGAUAUCGUUCUUUCUCAUGUAUAUAUCUUCUUUCUCGAUAUCAUAUUAAUCUUU
Q: For B18, which Kd is on record?
A: 2.36 nM

B19: Id_ii_S2_P3E.3_K3.2_C3.2_[C-2G]_H3.2_A3.1_F3.1_T3.2_[A10G] (ssRNA)
RNA: UUUGAUUAAUAUGAUAUCGUUCUUUCUGUUAUAUAUAUGUUCUUUCUCGAUAUCAUAUUAAUCUUU
Q: With B19 as the binder, how does the Kd read?
A: 22.9 nM

B20: Id_ii_S2_P3E.3_K3.2_C3.2_[C-2G]_[T-1G]_H3.2_A3.1_F3.1_T3.2_[T9A]_[A10C] (ssRNA)
RNA: UUUGAUUAAUAUGAUAUCGUUCUUUCUGGUAUAUAUAACUUCUUUCUCGAUAUCAUAUUAAUCUUU
Q: For B20, which Kd is on record?
A: 1450 nM

B21: Id_ii_S2_P3E.2_K3.1_C3.2_[C-2A]_H3.1_A3.1_F3.1_T3.2_[A10T] (ssRNA)
RNA: UUUGAUUAAUAUGAUAUCGUUCUUUCUAUUGUAUAUAUUUUCUUUCUCGAUAUCAUAUUAAUCUUU
Q: With B21 as the binder, how does the Kd read?
A: 3.05 nM

B22: Id_ii_S2_P3E.2_K3.1_C3.2_H3.1_A3.1_F3.1_T3.2_[A10G] (ssRNA)
RNA: UUUGAUUAAUAUGAUAUCGUUCUUUCUCUUGUAUAUAUGUUCUUUCUCGAUAUCAUAUUAAUCUUU
Q: With B22 as the binder, how does the Kd read?
A: 2.02 nM
